Literature values in article PMC4786785.

Target: Nterm1 (UniProt position 2, ----MPIAQIH)
Conditions: not stated (wild-type enzyme, described in the context of the natural tautomerase mechanism)

Substance: 4-oxalocrotonate tautomerase (4-OT) (Pseudomonas putida mt-2)
- pKa: ≈6.4
